In patent US20170157251A1 (MacroGenics, published 2017):

Tests used:
human CD19 on cells = molecular target: T1, human CD19 on cells (human, UniProt P15391 20-556); assay: flow cytometry on human blood leukocytes, CD20+ gate (B cells); detection with biotinylated anti-E-coil/K-coil mAb and streptavidin-PE
T1 construct: whole, on cells; also called CD19 on human CD20+ B cells; CD19 on Raji/GF, HBL-2, Jeko-1 cells
T1 sequence (looked up): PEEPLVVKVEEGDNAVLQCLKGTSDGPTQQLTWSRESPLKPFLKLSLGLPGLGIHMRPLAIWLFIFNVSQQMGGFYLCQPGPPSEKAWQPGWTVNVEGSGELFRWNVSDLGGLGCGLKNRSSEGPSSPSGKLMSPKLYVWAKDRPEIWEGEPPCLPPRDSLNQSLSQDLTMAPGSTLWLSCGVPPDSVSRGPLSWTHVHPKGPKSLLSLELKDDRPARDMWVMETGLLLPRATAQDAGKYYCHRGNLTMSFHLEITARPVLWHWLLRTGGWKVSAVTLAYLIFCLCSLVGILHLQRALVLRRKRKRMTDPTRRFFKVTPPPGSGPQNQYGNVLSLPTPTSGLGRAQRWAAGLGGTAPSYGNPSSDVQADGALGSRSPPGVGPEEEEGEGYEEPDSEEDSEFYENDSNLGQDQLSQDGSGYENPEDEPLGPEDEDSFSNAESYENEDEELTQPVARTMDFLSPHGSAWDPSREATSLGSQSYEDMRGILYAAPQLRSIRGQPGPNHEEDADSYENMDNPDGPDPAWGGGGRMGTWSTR

[1] = molecular target: T2, cynomolgus monkey CD3 on T cells (cynomolgus monkey, UniProt Q95LI5 22-198; Q95LI8 22-171); assay: flow cytometry on cynomolgus monkey blood leukocytes, CD4+ and CD8+ gate (T cells); detection with biotinylated anti-E-coil/K-coil mAb and streptavidin-PE
T2 construct: T cells were gated as CD4+ and CD8+; also called CD3 on cynomolgus monkey CD4+ and CD8+ T cells

[2] = molecular target: T3, soluble human CD19-biotin (human, UniProt P15391 20-291, limits assumed, biotin (site not stated)); assay: bifunctional (bispecific) ELISA: plate coated with soluble human CD3ε/δ, DART titrated, detected with soluble human CD19-biotin
T3 construct: Detection antigen of the bifunctional ELISA
T3 sequence (looked up): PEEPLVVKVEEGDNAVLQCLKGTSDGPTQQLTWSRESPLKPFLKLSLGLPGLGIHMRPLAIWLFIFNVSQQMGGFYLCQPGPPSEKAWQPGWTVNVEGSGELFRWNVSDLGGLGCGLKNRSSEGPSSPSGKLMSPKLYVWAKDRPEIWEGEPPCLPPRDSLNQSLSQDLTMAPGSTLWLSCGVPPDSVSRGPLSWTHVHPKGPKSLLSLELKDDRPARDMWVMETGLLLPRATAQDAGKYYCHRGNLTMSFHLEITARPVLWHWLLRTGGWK

human CD3 on T cells = molecular target: T4, human CD3 on T cells (human, UniProt P07766 23-207; P04234 22-171); assay: flow cytometry on human blood leukocytes, CD4+ and CD8+ gate (T cells); detection with biotinylated anti-E-coil/K-coil mAb and streptavidin-PE
T4 construct: also called CD3 on human CD4+ and CD8+ T cells; copies: 1 + 1
T4 sequence (P07766 23-207 limits assumed, chain 1 of 2): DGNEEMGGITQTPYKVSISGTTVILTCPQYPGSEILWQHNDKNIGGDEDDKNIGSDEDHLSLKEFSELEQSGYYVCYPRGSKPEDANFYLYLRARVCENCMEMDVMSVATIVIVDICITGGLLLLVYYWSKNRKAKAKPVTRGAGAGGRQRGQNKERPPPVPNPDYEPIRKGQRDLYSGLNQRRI
T4 sequence (P04234 22-171 limits assumed, chain 2 of 2): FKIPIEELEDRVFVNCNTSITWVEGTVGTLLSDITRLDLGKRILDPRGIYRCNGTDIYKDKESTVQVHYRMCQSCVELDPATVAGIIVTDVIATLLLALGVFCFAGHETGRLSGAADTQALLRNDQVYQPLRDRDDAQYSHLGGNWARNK

T2 sequence (Q95LI5 22-198 limits assumed, chain 1 of 2): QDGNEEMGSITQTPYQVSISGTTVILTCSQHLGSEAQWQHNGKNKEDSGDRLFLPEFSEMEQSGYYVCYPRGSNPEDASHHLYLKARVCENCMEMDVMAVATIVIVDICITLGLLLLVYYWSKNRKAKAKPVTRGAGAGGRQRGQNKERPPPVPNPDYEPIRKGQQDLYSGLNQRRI
T2 sequence (Q95LI8 22-171 limits assumed, chain 2 of 2): as the sequence (P04234 22-171 limits assumed, chain 2 of 2) above, with I5V, N15K, I20V, S32T, D33N, I34N, T64A, S74N, V83L, H141R counted along it

B1: Control DART 1 (Fluorescein×CD3) (bispecific antibody)
chain 1: DVVMTQTPFSLPVSLGDQASISCRSSQSLVHSNGNTYLRWYLQKPGQSPKVLIYKVSNRFSGVPDRFSGSGSGTDFTLKISRVEAEDLGVYFCSQSTHVPWTFGGGTKLEIKGGGSGGGGEVQLVESGGGLVQPGGSLRLSCAASGFTFSTYAMNWVRQAPGKGLEWVGRIRSKYNNYATYYADSVKGRFTISRDDSKNSLYLQMNSLKTEDTAVYYCVRHGNFGNSYVSWFAYWGQGTLVTVSSASTKGEVAACEKEVAALEKEVAALEKEVAALEKGGGDKTHTCPPCPAPEAAGGPSVFLFPPKPKDTLMISRTPEVTCVVVDVSHEDPEVKFNWYVDGVEVHNAKTKPREEQYNSTYRVVSVLTVLHQDWLNGKEYKCKVSNKALPAPIEKTISKAKGQPREPQVYTLPPSREEMTKNQVSLWCLVKGFYPSDIAVEWESNGQPENNYKTTPPVLDSDGSFFLYSKLTVDKSRWQQGNVFSCSVMHEALHNHYTQKSLSLSPGK
chain 2: QAVVTQEPSLTVSPGGTVTLTCRSSTGAVTTSNYANWVQQKPGQAPRGLIGGTNKRAPWTPARFSGSLLGGKAALTITGAQAEDEADYYCALWYSNLWVFGGGTKLTVLGGGGSGGGGEVKLDETGGGLVQPGRPMKLSCVASGFTFSDYWMNWVRQSPEKGLEWVAQIRNKPYNYETYYSDSVKGRFTISRDDSKSSVYLQMNNLRVEDMGIYYCTGSYYGMDYWGQGTSVTVSSASTKGKVAACKEKVAALKEKVAALKEKVAALKE
chain 3: not shown
notes: other arm is anti-fluorescein 4-4-20
**Q.** Does B1 bind (human CD19 on cells)?
**A.** no binding (tested: about 80 nM)

**Q.** Does B1 bind [1]?
**A.** binds

**Q.** Does B1 bind [2]?
**A.** no binding (tested: about 5 µg/ml)

**Q.** Does B1 bind (human CD3 on T cells)?
**A.** binds
